Assay in all cases: peptide or protein array; Peptides immobilised through the N-terminus (Tds spacer) on glass slides (JPT), nine spots per peptide; recombinant ligand 400 nM to 1 uM in PBS/0.05% Tween-20 with 5% BSA, 2 h at room temperature then overnight at 4 °C; detected with anti-HA plus anti-GST and Cy5-labelled secondary antibodies; background of a FLAG peptide subtracted
Holding throughout (conditions): both partners purified

The target in test [1] is T1, GST-HA-ATG16L1-231–607 A300, purified from human cells (human, UniProt Q676U5 231-607, T300A).
T1 construct: source: HEK-293T, retrovirally transduced, purified (GSH-agarose)
T1 sequence (Q676U5 231-607 T300A): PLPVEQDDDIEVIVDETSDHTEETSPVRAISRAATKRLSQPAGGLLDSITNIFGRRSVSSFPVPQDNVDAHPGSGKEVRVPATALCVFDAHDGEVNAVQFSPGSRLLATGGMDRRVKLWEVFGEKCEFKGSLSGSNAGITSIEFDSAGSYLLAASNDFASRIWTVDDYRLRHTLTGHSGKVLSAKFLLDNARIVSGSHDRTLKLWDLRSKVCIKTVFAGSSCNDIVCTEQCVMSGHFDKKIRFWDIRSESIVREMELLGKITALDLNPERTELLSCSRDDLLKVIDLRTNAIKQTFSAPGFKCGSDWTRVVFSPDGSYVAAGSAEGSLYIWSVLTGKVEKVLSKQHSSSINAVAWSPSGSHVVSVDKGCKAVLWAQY

Test [2] addresses T2, GST-HA-ATG16L1-320–607 (recombinant WD40 domain fused to GST and the HA tag) (human, UniProt Q676U5 320-607).
T2 construct: source: E. coli BL21 (pGEX), purified (GSH-agarose, eluted with reduced GSH)

In test [3] the target is T3, GST-HA-ATG16L1-231–607 T300, purified from human cells (human, UniProt Q676U5 231-607).
T3 construct: source: HEK-293T, retrovirally transduced, purified (GSH-agarose)
T3 sequence (Q676U5 231-607): as the sequence (Q676U5 231-607 T300A) above, with A70T counted along it

Ends that are not written are not given here. Tds = not defined here

T2 sequence (Q676U5 320-607): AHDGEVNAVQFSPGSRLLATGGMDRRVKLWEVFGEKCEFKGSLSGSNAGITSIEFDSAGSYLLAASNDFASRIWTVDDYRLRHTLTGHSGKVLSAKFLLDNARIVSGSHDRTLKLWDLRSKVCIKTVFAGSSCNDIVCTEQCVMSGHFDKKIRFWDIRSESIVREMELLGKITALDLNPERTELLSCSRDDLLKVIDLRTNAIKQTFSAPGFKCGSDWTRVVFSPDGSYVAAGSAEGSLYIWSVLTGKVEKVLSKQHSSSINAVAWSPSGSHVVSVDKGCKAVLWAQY

B1: TMEM59 263–281 peptide, wild type (19-amino acid peptide that includes the ATG16L1-binding motif) (peptide, UniProt Q9BXS4 263-281, looked up)
peptide: Tds-TAVEQYVPSEKLSIYGDLE
modifications: not fully specified; reading uncertain
notes: TMEM59 residues 263-281 of the intracellular domain; also called WT peptide; native peptide; source: synthetic peptide on microarray, bought: JPT (Germany)
Regarding B1, the binding result in test [1], in test [2] and in test [3] was “binds” each time.

B2: TMEM59 263–281 peptide E272A (peptide, UniProt Q9BXS4 263-281, looked up)
peptide: Tds-TAVEQYVPSAKLSIYGDLE
modifications: reading uncertain
notes: TMEM59 residues 263-281 with E272A; source: synthetic peptide on microarray, bought: JPT (Germany)
Take B2: the binding result in test [3] is on record as “binds”.

The record behind these values is publication PMC4899871, “The T300A Crohn's disease risk polymorphism impairs function of the WD40 domain of ATG16L1” (Nature Communications, 2016).
